Common to all, as to test: enzyme inhibition kinetics
The target of test [1] is T1, ADAMTS5-3 (human ADAMTS-5 deletion mutant, C-terminal FLAG-tag) (human, UniProt Q9UNA0 262-731).
T1 sequence (looked up): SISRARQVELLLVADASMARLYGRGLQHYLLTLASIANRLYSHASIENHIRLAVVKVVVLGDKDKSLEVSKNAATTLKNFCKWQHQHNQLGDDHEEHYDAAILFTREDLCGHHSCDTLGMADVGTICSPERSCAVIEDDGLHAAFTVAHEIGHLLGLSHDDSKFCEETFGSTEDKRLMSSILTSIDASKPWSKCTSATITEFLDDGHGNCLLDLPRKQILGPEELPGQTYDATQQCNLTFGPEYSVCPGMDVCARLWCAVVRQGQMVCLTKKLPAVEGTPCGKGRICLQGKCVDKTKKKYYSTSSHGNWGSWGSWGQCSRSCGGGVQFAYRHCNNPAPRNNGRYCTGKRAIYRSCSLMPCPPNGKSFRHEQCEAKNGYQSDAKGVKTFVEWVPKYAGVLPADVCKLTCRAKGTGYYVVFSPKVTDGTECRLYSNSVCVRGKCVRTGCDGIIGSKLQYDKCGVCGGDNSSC

For test [2], the target named is T2, ADAMTS5-4 (human ADAMTS-5 deletion mutant, C-terminal FLAG-tag) (human, UniProt Q9UNA0 262-622).
T2 sequence (looked up): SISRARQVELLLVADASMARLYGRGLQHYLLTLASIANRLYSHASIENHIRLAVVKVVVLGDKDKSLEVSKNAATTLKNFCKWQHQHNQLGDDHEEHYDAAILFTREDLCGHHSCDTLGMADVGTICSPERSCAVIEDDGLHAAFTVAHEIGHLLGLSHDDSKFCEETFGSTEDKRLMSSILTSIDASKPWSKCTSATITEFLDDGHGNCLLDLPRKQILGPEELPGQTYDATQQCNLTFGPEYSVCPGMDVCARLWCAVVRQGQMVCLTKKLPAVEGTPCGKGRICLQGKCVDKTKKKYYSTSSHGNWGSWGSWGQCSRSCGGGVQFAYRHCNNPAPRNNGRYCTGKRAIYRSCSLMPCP

Test [3] addresses T3, ADAMTS5-5 (human ADAMTS-5, catalytic and disintegrin domain, C-terminal FLAG-tag) (human, UniProt Q9UNA0 262-566).
T3 sequence (looked up): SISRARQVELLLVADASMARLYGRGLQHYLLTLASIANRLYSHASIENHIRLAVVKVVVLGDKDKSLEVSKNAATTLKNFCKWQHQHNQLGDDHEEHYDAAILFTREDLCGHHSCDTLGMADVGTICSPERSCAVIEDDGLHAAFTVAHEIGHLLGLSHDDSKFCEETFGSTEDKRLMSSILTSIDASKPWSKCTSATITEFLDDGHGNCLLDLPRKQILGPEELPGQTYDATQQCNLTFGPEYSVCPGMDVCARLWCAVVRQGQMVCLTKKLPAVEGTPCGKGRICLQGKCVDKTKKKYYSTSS

Test [4] deals with T4, ADAMTS5-1 (full-length human ADAMTS-5, C-terminal FLAG-tag) (human, UniProt Q9UNA0 262-930).
T4 sequence (looked up): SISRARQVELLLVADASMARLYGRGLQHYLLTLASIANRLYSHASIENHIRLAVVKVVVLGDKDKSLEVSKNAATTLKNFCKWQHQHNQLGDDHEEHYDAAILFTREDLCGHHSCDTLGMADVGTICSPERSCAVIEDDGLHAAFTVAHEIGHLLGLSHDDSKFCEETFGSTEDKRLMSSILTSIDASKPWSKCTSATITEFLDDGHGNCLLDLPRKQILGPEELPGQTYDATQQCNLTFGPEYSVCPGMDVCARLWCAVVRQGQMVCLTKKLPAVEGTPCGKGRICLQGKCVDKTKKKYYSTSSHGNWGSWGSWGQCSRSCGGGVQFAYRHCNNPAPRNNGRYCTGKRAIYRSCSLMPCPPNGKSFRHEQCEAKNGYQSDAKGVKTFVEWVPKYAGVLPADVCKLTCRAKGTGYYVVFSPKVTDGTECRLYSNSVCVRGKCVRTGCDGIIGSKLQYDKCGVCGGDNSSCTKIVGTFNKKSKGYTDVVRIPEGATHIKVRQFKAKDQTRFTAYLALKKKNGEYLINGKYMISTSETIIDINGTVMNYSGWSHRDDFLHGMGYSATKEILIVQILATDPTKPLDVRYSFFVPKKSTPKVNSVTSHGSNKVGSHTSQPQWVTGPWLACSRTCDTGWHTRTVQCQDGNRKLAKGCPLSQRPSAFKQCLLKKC

B1: FLAG-tagged glycosylated human TIMP-3 (full-length tissue inhibitor of metalloproteinases 3), expressed in HEK293 (natural protein, UniProt P35625 24-211, looked up)
chain: CTCSPSHPQDAFCNSDIVIRAKVVGKKLVKEGPFGTLVYTIKQMKMYRGFTKMPHVQYIHTEASESLCGLKLEVNKYQYLLTGRVYDGKMYTGLCNFVERWDQLTLSQRKGLNYRYHLGCNCKIKSCYYLPCFVTSKNECLWTDMLSNFGYPGYQSKHYACIRQKGGYCSWYRGWAPPDKSIINATDP
modifications: glycosylated (only the 27 kDa glycosylated form remained after purification; single N-glycosylation site in the C-terminal domain)
As usually defined, the Ki is a dissociation constant, usually derived from enzyme kinetics or from competition with a known ligand. Low values mean higher affinity, high ones lower affinity. For the molecule B1, the Ki amounted to 1 nM in test [1], 1.13 nM in test [2], 1.17 nM in test [3] and 0.63 nM in test [4].
